Patent US20110223188A1, “TARGETED COSTIMULATORY POLYPEPTIDES AND METHODS OF USE TO TREAT CANCER” (priority 2008, published 2011)

B1: Murine B7-DC-Ig: murine B7-DC fusion protein: B7-DC extracellular domain fused to murine immunoglobulin Cγ2a hinge, CH2, CH3 (likely SEQ ID NO:80/81) (protein)
chain: MLLLLPILNLSLQLHPVAALFTVTAPKEVYTVDVGSSVSLECDFDRRECTELEGIRASLQKVENDTSLQSERATLLEEQLPLGKALFHIPSVQVRDSGQYRCLVICGAAWDYKYLTVKVKASYMRIDTRILEVPGTGEVQLTCQARGYPLAEVSWQNVSVPANTSHIRTPEGLYQVTSVLRLKPQPSRNFSCMFWNAHMKELTSAIIDPLSRMEPKVPRTWEPRGPTIKPCPPCKCPAPNLLGGPSVFIFPPKIKDVLMISLSPIVTCVVVDVSEDDPDVQISWFVNNVEVHTAQTQTHREDYNSTLRVVSALPIQHQDWMSGKEFKCKVNNKDLPAPIERTISKPKGSVRAPQVYVLPPPEEEMTKKQVTLTCMVTDFMPEDIYVEWTNNGKTELNYKNTEPVLDSDGSYFMYSKLRVEKKNWVERNSYSCSVVHEGLHNHHTTKSFSRTPGK
modifications: Synthetic murine B7-DC fusion protein with signal peptide

How the values were obtained:
[1] = system: CT26 colorectal tumor cells; assay: Established CT26 colorectal tumor model (subcutaneous); settings: CTX 100 mg/kg on day 10 alone
Excerpt: Balb/C mice at age of 9 to 11 weeks were implanted subcutaneously with 1.0×10^5 CT26 colorectal tumor cells.

[2] = system: SP-1 mouse prostate tumor cells; assay: Metastatic prostate lung tumor model (SP-1), survival; type: in vivo, B10.D2 mice; settings: CTX 50 mg/kg Day 5, 12, 19; B7-DC-Ig 5 mg/kg Day 6, 13, 20
Protocol: SP-1 cells were isolated from mouse lungs that were metastasized from. TRAMP prostate tumor cell injection. B10.D2 mice were first injected with 3×10^5 SP-1 cells via tail vein injection. On Day 5, 12 and 19, mice were injected with 50 mg/kg of CTX where was indicated. […] Here, “NT” refers to “not treated”.
The CTX mice received 3 doses of CTX, 50 mg/kg, on Day 5, 12 and 19.

[3] = system: Treg; CD4+ T cells expressing high PD-1; assay: T cell analysis (Treg, PD-1+/CD4+ T cells) in CT26 tumor-bearing mice; type: in vivo, Balb/C mice
Protocol: On Day 9, mice were injected with 100 mg/kg of CTX, IP. Twenty four hours later, on Day 10, mice were treated with 100 ug of 137-DC-Ig. […] Two naïve mice and 4 mice from other groups were removed from the study on Day 11 (2 days post CTX) and Day 16 (7 days post CTX) for T cell analysis. […] Mice implanted with tumor cells intended to have more PD-1+/CD4+ T cells in the draining LN compared with naïve mice.
On Day 9, mice were injected with 100 mg/kg of CTX, IP. […] Two naïve mice and 4 mice from other groups were removed from the study on Day 11 (2 days post CTX) and Day 16 (7 days post CTX) for T cell analysis. […] Mice implanted with tumor cells intended to have more PD-1+/CD4+ T cells in the draining LN compared with naïve mice.

P815 mastocytoma = P815 mastocytoma tumor model; type: in vivo, DBA/2 mice
Protocol: P815 mastocytoma cells were derived from DBA/2 mice after methylcholanthrene (MCA) treatment. Injection of 5×10^4 cells SC can result in mortality approximately 35 days post tumor inoculation.
DBA/2 mice (6-10 weeks of age, females) were first challenged with 5×10^4 live P815 cells injected SC in the flank. Six days later, the mice were treated with murine B7-DC-Ig via IP injection. […] Control groups were treated with vehicle only or with murine IgG. Tumor size was measured with digital calipers every 2-3 days. Mice were euthanized and defined as dead when their tumor size reached or exceeded 1000 mm^3, according to protocols approved by the Institutional Animal Care and Use Committee (IACUC) of the American Red Cross (ARC; the site of Amplimmune's vivarium). Surviving tumor free mice were re-challenged with P815 tumor cells on Day 52.
The tumor-free mice were then re-challenged with 5×10^4P815 cells administered to the flank opposite the primary inoculation site on Day 52.

[4] = number of mice, 5 per group, P815 cells SC, treatment IP biw 3 weeks starting Day 6

| Molecule | outcome of mice (tumor growth/survival) [1] | mice survived on Day 100 [2] [%] | Treg in the spleen vs tumor-implanted vehicle-injected mice ([3]; Day 11, 2 days post CTX 100 mg/kg IP) | mice responded to treatment (P815 mastocytoma; 100 μg per injection (approximately 5 mg/kg) IP, 2 times per week, up to 6 doses) | # Tumor <500 mm^3 (P815 mastocytoma; [4]) | # Tumor free (P815 mastocytoma; [4]) | # Tumor ≧500 mm^3 (P815 mastocytoma; [4]) | mice in which tumor was eradicated (P815 mastocytoma; of 5 treated mice) | mice showing delayed tumor growth during treatment (P815 mastocytoma; of 5 treated mice) | tumor status after re-challenge with P815 cells on Day 52 (P815 mastocytoma; tumor-free mice re-challenged on opposite flank, followed through 74 days after primary inoculation) | CD4+ T cells expressing high PD-1 ([3]; Day 16, 7 days post CTX and 6 days post B7-DC-Ig 100 ug) |
| --- | --- | --- | --- | --- | --- | --- | --- | --- | --- | --- | --- |
| O=P1(N(CCCl)CCCl)NCCCO1 (stereo not drawn) [CTX, cyclophosphamide, reference compound] | died as a result of tumor growth or were euthanized | 17 | significantly lower | – | – | – | – | – | – | – | – |
| B1 | – | 17 | – | Four of 5 | 2 | 2 | 1 | two | two | remained tumor free | significantly lowered |
